According to paper PMC6612559, “Functional characterization of a novel arachidonic acid 12S‐lipoxygenase in the halotolerant bacterium Myxococcus fulvus exhibiting complex social living patterns” (MicrobiologyOpen, 2018):

Substrate: CC/C=C\C/C=C\C/C=C\C/C=C\C/C=C\CCCC(=O)O
Assay: purified protein
Assay type: biochemical, Myxococcus fulvus
Conditions: PBS, no detergent; O2 co-substrate; fit over all substrate concentrations up to 200 µM

B1: MF-LOX1 (Myxococcus fulvus LOX1) (Myxococcus fulvus) (protein)
chain: MTVEYKLRIRTSTKLGAGTDANISVVLVGTRGESGPHVLDKPFHNDFEAGAEDVYSVQASDDVGALLLLRFGNTGGIAADWLLDHAWVTAGERQWSFPFFRWVRAGATVDVLEGTAKLARHAGCEREATARRELLEARRRMYPWRPAEATEGLPGALDLSEAQPLPKDELYRGLTEGSYEVVIARTLAAIKLHLPLLSKAWNGLVDIFDFFKGLEVPRLAPRWQDDLEFARQAVQGINPLHITLIPQLPQGMPLTDEDVKGVLSPGTTLARALDSKRIFLLDFDILEDIPMYRKVDEDGVEERRWAPAARCLLYLDDLRQLRPLAIQLGRDGGKDPVFTPNDDTYDWLAAKIYLRCSEGNTHQMVAHALRTHFVAEPFVMATMRNLPDPHPVYKLLRRHFRYTLAINEGARKGLLAAGGVFDDFIATGGPDKGHLQLGKKGYQRWKLTDNRPREDLEHRGVLDPAVLPYYPYRDDALPLWDALEEYVGGVLRYFYPTDADLEGDTEMQHWWKDLTEHGLPVDKLPCRELSRVDDLVDILTTVVFTVSVQHAAVNYLQYEHYAFVPNAPLCMRREPPRQKGTLCAEDLPEMIPSRSQTLWQVAIGRALSSFGDDEEYLLNEGGWREEYFQEPQVRALRERFEQRLRAQRDVVAARNAGAQVPYTVLSPDRIPCGITV
notes: full length, native protein 676 residues; N-terminal hexa-His tag kept, 32 extra N-terminal residues (pET28b); E. coli, Ni-agarose
Km: 70 µM | kcat: (3.1 ± 1.2) x 10^−2 s^-1
